{
  "source": "patent US7244431B2",
  "about": "“Allergy vaccines and their preparation” (priority 2000, dated 2007)",
  "key": {"[1]": {"tested_on": "IgE antibodies in sera from birch pollen allergic patients", "experiment": "ELISA detection of peptide- and rBet v 1-specific IgE antibodies", "format": "binding, human", "method_in_brief": "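IgE binding detected by 1:1000 alkaline-phosphatase mouse monoclonal anti-human IgE after overnight 4 °C incubation with 1:3-diluted sera. Sera came from 60 birch pollen allergic patients (25 male, 35 female, age 19–60) and a non-atopic control.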"}, "[2]": {"tested_on": "basophilic granulocytes of birch pollen allergic individuals", "experiment": "Basophil histamine-release assay", "format": "cell-based, human", "details": "10^−3-10 μg/ml", "procedure": "Granulocytes were isolated from heparinized blood samples of 3 birch pollen allergic individuals by dextran sedimentation (Valent, P. et al. (1989) Interleukin 3 activates human blood basophils via high-affinity binding sites. Proc. Natl. Sci. USA 86, 5542-5547). […] Histamine released in the cell-free culture supernatant was measured by radioimmunoassay (Immunotech, Marseille, France). Total histamine was determined after freezing and thawing of cells."}, "[3]": {"tested_on": "birch pollen allergic patients", "experiment": "Skin prick testing of allergic patients", "format": "in vivo, human", "procedure": "SPTs were performed on the individuals forearms as described ([…]. et al. (1997) J. Clin Invest. 99, 1673-168; Dreborg S: (1989) J. Am. Acad. DerMatol. 21, 820-821). […] In addition standardized skin prick solutions (birch pollen extract and histamine) (Allergopharma, Reinbek, Germany) were tested. Reactions were recorded 20 minutes after SPT by photography and by transferring the ballpoint pen-surrounded wheal area with a scotch tape to paper."}, "[4]": {"details": "all 60 birch pollen allergic patients"}},
  "data": [
    {"molecule": "rBet v 1: purified recombinant Bet v 1, major birch pollen allergen, purchased from BIOMAY (protein) GVFNYETETTSVIPAARLFKAFILDGDNLFPKVAPQAISSVENIEGNGGPGTIKKISFPEGFPFKYVKDRVDEVDHTNFKYNYSVIEGGPIGDTLEKISNEIKIVATPDGGSILKISNKYHTKGDHEVKAEQVKASKEMGETLLRAVESYLLAHSDAYN", "values": [
      {"measurement": "rBet v1-specific IgE antibodies, mean", "setting": "[1]; [4]", "value": 1.416, "unit": "OD units"},
      {"measurement": "rBet v1-specific IgE antibodies, range", "setting": "[1]; [4]", "value": "0.081-2.530 OD units"},
      {"measurement": "IgE (OD)", "setting": "[1]; serum of NHS, non-allergic control individual", "value": 0.048, "unit": "OD"},
      {"measurement": "IgE (OD)", "setting": "[1]; serum of patient 1", "value": 0.829, "unit": "OD"},
      {"measurement": "IgE (OD)", "setting": "[1]; serum of patient 2", "value": 1.380, "unit": "OD"},
      {"measurement": "IgE (OD)", "setting": "[1]; serum of patient 3", "value": 2.144, "unit": "OD"},
      {"measurement": "IgE (OD)", "setting": "[1]; serum of patient 4", "value": 0.701, "unit": "OD"},
      {"measurement": "IgE (OD)", "setting": "[1]; serum of patient 5", "value": 0.344, "unit": "OD"},
      {"measurement": "IgE (OD)", "setting": "[1]; serum of patient 6", "value": 2.300, "unit": "OD"},
      {"measurement": "IgE (OD)", "setting": "[1]; serum of patient 7", "value": 2.245, "unit": "OD"},
      {"measurement": "IgE (OD)", "setting": "[1]; serum of patient 9", "value": 0.196, "unit": "OD"},
      {"measurement": "IgE (OD)", "setting": "[1]; serum of patient 10", "value": 0.097, "unit": "OD"},
      {"measurement": "IgE (OD)", "setting": "[1]; serum of patient 11", "value": 0.428, "unit": "OD"},
      {"measurement": "IgE (OD)", "setting": "[1]; serum of patient 12", "value": 0.271, "unit": "OD"},
      {"measurement": "IgE (OD)", "setting": "[1]; serum of patient 13", "value": 0.281, "unit": "OD"},
      {"measurement": "IgE (OD)", "setting": "[1]; serum of patient 14", "value": 0.704, "unit": "OD"},
      {"measurement": "IgE (OD)", "setting": "[1]; serum of patient 20", "value": 0.249, "unit": "OD"},
      {"measurement": "IgE (OD)", "setting": "[1]; serum of patient 21", "value": 0.461, "unit": "OD"},
      {"measurement": "IgE (OD)", "setting": "[1]; serum of patient 22", "value": 0.258, "unit": "OD"},
      {"measurement": "IgE (OD)", "setting": "[1]; serum of patient 23", "value": 1.555, "unit": "OD"},
      {"measurement": "IgE (OD)", "setting": "[1]; serum of patient 25", "value": 0.5, "unit": "OD"},
      {"measurement": "IgE (OD)", "setting": "[1]; serum of patient 26", "value": 0.191, "unit": "OD"},
      {"measurement": "IgE (OD)", "setting": "[1]; serum of patient 27", "value": 0.535, "unit": "OD"},
      {"measurement": "IgE (OD)", "setting": "[1]; serum of patient 28", "value": 0.492, "unit": "OD"},
      {"measurement": "IgE (OD)", "setting": "[1]; serum of patient 29", "value": 0.154, "unit": "OD"},
      {"measurement": "IgE (OD)", "setting": "[1]; serum of patient 30", "value": 0.081, "unit": "OD"},
      {"measurement": "IgE (OD)", "setting": "[1]; serum of patient 32", "value": 0.195, "unit": "OD"},
      {"measurement": "IgE (OD)", "setting": "[1]; serum of patient 33", "value": 0.106, "unit": "OD"},
      {"measurement": "IgE (OD)", "setting": "[1]; serum of patient 34", "value": 0.377, "unit": "OD"},
      {"measurement": "IgE (OD)", "setting": "[1]; serum of patient 36", "value": 0.306, "unit": "OD"},
      {"measurement": "IgE (OD)", "setting": "[1]; serum of patient 38", "value": 1.571, "unit": "OD"},
      {"measurement": "IgE (OD)", "setting": "[1]; serum of patient 40", "value": 0.084, "unit": "OD"},
      {"measurement": "IgE (OD)", "setting": "[1]; serum of patient 43", "value": 0.363, "unit": "OD"},
      {"measurement": "IgE (OD)", "setting": "[1]; serum of patient 44", "value": 2.386, "unit": "OD"},
      {"measurement": "IgE (OD)", "setting": "[1]; serum of patient 45", "value": 0.289, "unit": "OD"},
      {"measurement": "IgE (OD)", "setting": "[1]; serum of patient 47", "value": 0.381, "unit": "OD"},
      {"measurement": "IgE (OD)", "setting": "[1]; serum of patient 48", "value": 1.422, "unit": "OD"},
      {"measurement": "IgE (OD)", "setting": "[1]; serum of patient 49", "value": 0.379, "unit": "OD"},
      {"measurement": "IgE (OD)", "setting": "[1]; serum of patient 51", "value": 0.307, "unit": "OD"},
      {"measurement": "IgE (OD)", "setting": "[1]; serum of patient 54", "value": 1.310, "unit": "OD"},
      {"measurement": "IgE (OD)", "setting": "[1]; serum of patient 55", "value": 2.489, "unit": "OD"},
      {"measurement": "IgE (OD)", "setting": "[1]; serum of patient 56", "value": 2.530, "unit": "OD"},
      {"measurement": "IgE (OD)", "setting": "[1]; serum of patient 57", "value": 0.741, "unit": "OD"},
      {"measurement": "IgE (OD)", "setting": "[1]; serum of patient 58", "value": 0.072, "unit": "OD"},
      {"measurement": "IgE (OD)", "setting": "[1]; serum of patient 59", "value": 0.168, "unit": "OD"},
      {"measurement": "induction of histamine release", "setting": "[2]", "value": "dose-dependent release of histamine"},
      {"measurement": "concentration inducing immediate type skin reactions in three patients (#1-3)", "setting": "[3]; human, in vivo", "value": "< 0.78", "unit": "µg/mL"},
      {"measurement": "concentration sufficient to induce wheal reactions in all five birch pollen allergic patients", "setting": "[3]; human, in vivo", "value": 3.12, "unit": "µg/mL"},
      {"measurement": "mean wheal diameter", "setting": "[3]; individual 1, rBet v 1 0.39 μg/ml", "value": 2.5, "unit": "mm"},
      {"measurement": "mean wheal diameter", "setting": "[3]; individual 1, rBet v 1 0.78 μg/ml", "value": 4, "unit": "mm"},
      {"measurement": "mean wheal diameter", "setting": "[3]; individual 1, rBet v 1 1.56 μg/ml", "value": 4.5, "unit": "mm"},
      {"measurement": "mean wheal diameter", "setting": "[3]; individual 1, rBet v 1 3.12 μg/ml", "value": 5, "unit": "mm"},
      {"measurement": "mean wheal diameter", "setting": "[3]; individual 1, rBet v 1 6.25 μg/ml", "value": 6, "unit": "mm"},
      {"measurement": "mean wheal diameter", "setting": "[3]; individual 1, rBet v 1 12.5 μg/ml", "value": 13, "unit": "mm"},
      {"measurement": "mean wheal diameter", "setting": "[3]; individual 2, rBet v 1 0.39 μg/ml", "value": 2, "unit": "mm"},
      {"measurement": "mean wheal diameter", "setting": "[3]; individual 2, rBet v 1 0.78 μg/ml", "value": 3.5, "unit": "mm"},
      {"measurement": "mean wheal diameter", "setting": "[3]; individual 2, rBet v 1 1.56 μg/ml", "value": 5, "unit": "mm"},
      {"measurement": "mean wheal diameter", "setting": "[3]; individual 2, rBet v 1 3.12 μg/ml", "value": 5.5, "unit": "mm"},
      {"measurement": "mean wheal diameter", "setting": "[3]; individual 2, rBet v 1 6.25 μg/ml", "value": 7, "unit": "mm"},
      {"measurement": "mean wheal diameter", "setting": "[3]; individual 2, rBet v 1 12.5 μg/ml", "value": 7.5, "unit": "mm"},
      {"measurement": "mean wheal diameter", "setting": "[3]; individual 2, rBet v 1 25 μg/ml", "value": 8, "unit": "mm"},
      {"measurement": "mean wheal diameter", "setting": "[3]; individual 3, rBet v 1 0.78 μg/ml", "value": 2, "unit": "mm"},
      {"measurement": "mean wheal diameter", "setting": "[3]; individual 3, rBet v 1 1.56 μg/ml", "value": 3, "unit": "mm"},
      {"measurement": "mean wheal diameter", "setting": "[3]; individual 3, rBet v 1 3.12 μg/ml", "value": 4, "unit": "mm"},
      {"measurement": "mean wheal diameter", "setting": "[3]; individual 3, rBet v 1 6.25 μg/ml", "value": 6, "unit": "mm"},
      {"measurement": "mean wheal diameter", "setting": "[3]; individual 3, rBet v 1 12.5 μg/ml", "value": 6.5, "unit": "mm"},
      {"measurement": "mean wheal diameter", "setting": "[3]; individual 3, rBet v 1 25 μg/ml", "value": 8, "unit": "mm"},
      {"measurement": "mean wheal diameter", "setting": "[3]; individual 4, rBet v 1 3.12 μg/ml", "value": 2, "unit": "mm"},
      {"measurement": "mean wheal diameter", "setting": "[3]; individual 4, rBet v 1 6.25 μg/ml", "value": 3, "unit": "mm"},
      {"measurement": "mean wheal diameter", "setting": "[3]; individual 4, rBet v 1 12.5 μg/ml", "value": 4, "unit": "mm"},
      {"measurement": "mean wheal diameter", "setting": "[3]; individual 4, rBet v 1 25 μg/ml", "value": 4.5, "unit": "mm"},
      {"measurement": "mean wheal diameter", "setting": "[3]; individual 5, rBet v 1 1.56 μg/ml", "value": 2, "unit": "mm"},
      {"measurement": "mean wheal diameter", "setting": "[3]; individual 5, rBet v 1 3.12 μg/ml", "value": 2.5, "unit": "mm"},
      {"measurement": "mean wheal diameter", "setting": "[3]; individual 5, rBet v 1 6.25 μg/ml", "value": 4, "unit": "mm"},
      {"measurement": "mean wheal diameter", "setting": "[3]; individual 5, rBet v 1 12.5 μg/ml", "value": 11, "unit": "mm"},
      {"measurement": "mean wheal diameter", "setting": "[3]; individual 5, rBet v 1 25 μg/ml", "value": 5, "unit": "mm"}
    ]}
  ]
}
